Test results from publication PMC13124150, “Interrogating the structure and function of the human voltage-gated proton channel (hHv1) with a fluorescent noncanonical amino acid” (eLife, 2026).

Target: the molecule itself
Assay: SEC; SEC-cleaned No TAG hHv1 injected at several concentrations on an ENrich SEC 650 column in Buffer-H2 (50 mM Tris, 150 mM NaCl, 12 mM Anz3-12, pH 8.0); compared with a run in denaturing buffer (50 mM Tris, pH 8.0, 150 mM NaCl, 0.2% SDS); Ex/Em = 280/350 nm

B1: hHv1-Cysless (His-EK-hHv1-C107A-C249A), human voltage-gated proton channel (natural protein, UniProt Q96D96 1-273, looked up)
chain: MATWDEKAVTRRAKVAPAERMSKFLRHFTVVGDDYHAWNINYKKWENEEEEEEEEQPPPTPVSGEEGRAAAPDVAPAPGPAPRAPLDFRGMLRKLFSSHRFQVIIIALVVLDALLVLAELILDLKIIQPDKNNYAAMVFHYMSITILVFFMMEIIFKLFVFRLEFFHHKFEILDAVVVVVSFILDIVLLFQEHQFEALGLLILLRLWRVARIINGIIISVKTRSERQLLRLKQMNVQLAAKIQHLEFSASEKEQEIERLNKLLRQHGLLGEVN
notes: human voltage-gated proton channel (hHv1), full-length, with C107A and C249A (Cysless); Construct name His-EK-hHv1 in pET15-b; 'EK' between the His tag and hHv1 is probably an enterokinase site (surmised); no cleavage step is described; also called No TAG; control; source: E. coli BL21-Gold(DE3), purified (Ni-NTA in Anzergent 3-12, FSEC)
  stoichiometry N: 2
